From patent US20050019842A1
One block for each substance: values may come before it.

What was measured:
[1] = target: avidin (from egg white, Sigma Chemical Co., product number A9275) (UniProt P02701); test: resonant light scattering; step C, 50 µg/mL antibody on avidin held on biotinylated microparticles; shift is cumulative against the unbound reference (avidin step alone 0.031 nm); N=18
[2] = target: mouse IgG (Sigma Chemical Co., product number I5381); test: resonant light scattering; step 3, 50 µg/mL rabbit anti-mouse IgG in step 2 background on mouse IgG microparticles; against the starting spectra
[3] = target: mouse IgG (Sigma Chemical Co., product number I5381); test: resonant light scattering; step C, 40 µg/mL Fab specific goat anti-mouse IgG on mouse IgG held by Protein G′ microparticles; shift is cumulative against the unbound reference (0.054 nm after step B)
[4] = target: mouse IgG (Sigma Chemical Co., product number I5381); test: resonant light scattering; step 1, 2.2 mg/mL E. coli cellular extract proteins on mouse IgG microparticles; against the starting spectra
[5] = target: Protein G′ (Sigma Chemical Co. product P-4689) (group G Streptococcal strain) (UniProt P19909); test: resonant light scattering, real time; 10 µg/mL mouse IgG on Protein G′ microparticles
[6] = target: Protein G′ (Sigma Chemical Co. product P-4689) (group G Streptococcal strain) (UniProt P19909); test: resonant light scattering, real time; 10 µg/mL mouse IgG on Protein G′ microparticles; time 5 min
[7] = target: Protein G′ (Sigma Chemical Co. product P-4689) (group G Streptococcal strain) (UniProt P19909); test: resonant light scattering, real time; 50 µg/mL mouse IgG on Protein G′ microparticles; time 5 min
[8] = target: Protein G′ (Sigma Chemical Co. product P-4689) (group G Streptococcal strain) (UniProt P19909); test: resonant light scattering, real time; 10 µg/mL mouse IgG on Protein G′ microparticles; time 11 min
[9] = target: Protein G′ (Sigma Chemical Co. product P-4689) (group G Streptococcal strain) (UniProt P19909); test: resonant light scattering, real time; 10 µg/mL mouse IgG on Protein G′ microparticles; time 16 min
[10] = target: Protein G′ (Sigma Chemical Co. product P-4689) (group G Streptococcal strain) (UniProt P19909); test: resonant light scattering, real time; 10 µg/mL mouse IgG on Protein G′ microparticles; time 20 min
[11] = target: Protein G′ (Sigma Chemical Co. product P-4689) (group G Streptococcal strain) (UniProt P19909); test: resonant light scattering, real time; 10 µg/mL mouse IgG on Protein G′ microparticles; time 25 min
[12] = target: Protein G′ (Sigma Chemical Co. product P-4689) (group G Streptococcal strain) (UniProt P19909); test: resonant light scattering, real time; 10 µg/mL mouse IgG on Protein G′ microparticles; time 30 min
[13] = target: Protein G′ (Sigma Chemical Co. product P-4689) (group G Streptococcal strain) (UniProt P19909); test: resonant light scattering, real time; 10 µg/mL mouse IgG on Protein G′ microparticles; time 35 min
[14] = target: Protein G′ (Sigma Chemical Co. product P-4689) (group G Streptococcal strain) (UniProt P19909); test: resonant light scattering, real time; 10 µg/mL mouse IgG on Protein G′ microparticles; time 40 min
[15] = target: Protein G′ (Sigma Chemical Co. product P-4689) (group G Streptococcal strain) (UniProt P19909); test: resonant light scattering, real time; 10 µg/mL mouse IgG on Protein G′ microparticles; time 50 min
[16] = target: Protein G′ (Sigma Chemical Co. product P-4689) (group G Streptococcal strain) (UniProt P19909); test: resonant light scattering, real time; 10 µg/mL mouse IgG on Protein G′ microparticles; time 60 min
[17] = target: Protein G′ (Sigma Chemical Co. product P-4689) (group G Streptococcal strain) (UniProt P19909); test: resonant light scattering, real time; 50 µg/mL mouse IgG on Protein G′ microparticles; time 11 min
[18] = target: Protein G′ (Sigma Chemical Co. product P-4689) (group G Streptococcal strain) (UniProt P19909); test: resonant light scattering, real time; 50 µg/mL mouse IgG on Protein G′ microparticles; time 20 min
[19] = target: Protein G′ (Sigma Chemical Co. product P-4689) (group G Streptococcal strain) (UniProt P19909); test: resonant light scattering, real time; 50 µg/mL mouse IgG on Protein G′ microparticles; time 30 min
[20] = target: Protein G′ (Sigma Chemical Co. product P-4689) (group G Streptococcal strain) (UniProt P19909); test: resonant light scattering, real time; 50 µg/mL mouse IgG on Protein G′ microparticles; time 35 min
[21] = target: Protein G′ (Sigma Chemical Co. product P-4689) (group G Streptococcal strain) (UniProt P19909); test: resonant light scattering, real time; 500 µg/mL mouse IgG on Protein G′ microparticles; time 5 min
[22] = target: Protein G′ (Sigma Chemical Co. product P-4689) (group G Streptococcal strain) (UniProt P19909); test: resonant light scattering, real time; 500 µg/mL mouse IgG on Protein G′ microparticles; time 11 min
[23] = target: Protein G′ (Sigma Chemical Co. product P-4689) (group G Streptococcal strain) (UniProt P19909); test: resonant light scattering, real time; 500 µg/mL mouse IgG on Protein G′ microparticles; time 16 min
[24] = target: Protein G′ (Sigma Chemical Co. product P-4689) (group G Streptococcal strain) (UniProt P19909); test: resonant light scattering, real time; 500 µg/mL mouse IgG on Protein G′ microparticles; time 20 min
[25] = target: Protein G′ (Sigma Chemical Co. product P-4689) (group G Streptococcal strain) (UniProt P19909); test: resonant light scattering, real time; 500 µg/mL mouse IgG on Protein G′ microparticles; time 25 min
[26] = target: Protein G′ (Sigma Chemical Co. product P-4689) (group G Streptococcal strain) (UniProt P19909); test: resonant light scattering, real time; 500 µg/mL mouse IgG on Protein G′ microparticles; time 30 min
[27] = target: Protein G′ (Sigma Chemical Co. product P-4689) (group G Streptococcal strain) (UniProt P19909); test: resonant light scattering, real time; 500 µg/mL mouse IgG on Protein G′ microparticles; time 35 min
[28] = target: Protein G′ (Sigma Chemical Co. product P-4689) (group G Streptococcal strain) (UniProt P19909); test: resonant light scattering, real time; 10 µg/mL mouse IgG on Protein G′ microparticles; time 0 min (reference)
[29] = target: Protein G′ (Sigma Chemical Co. product P-4689) (group G Streptococcal strain) (UniProt P19909); test: resonant light scattering, real time; 50 µg/mL mouse IgG on Protein G′ microparticles; time 0 min (reference)
[30] = target: Protein G′ (Sigma Chemical Co. product P-4689) (group G Streptococcal strain) (UniProt P19909); test: resonant light scattering, real time; 500 µg/mL mouse IgG on Protein G′ microparticles; time 0 min (reference)
[31] = target: Protein G′ (Sigma Chemical Co. product P-4689) (group G Streptococcal strain) (UniProt P19909); test: resonant light scattering; step B, 50 µg/mL mouse IgG on Protein G′ microparticles, 0.5 h; against the unbound reference
[32] = target: mouse IgG (Sigma Chemical Co., product number I5381); test: resonant light scattering; step 2, 50 µg/mL anti-Alexa rabbit IgG in cell extract background on mouse IgG microparticles; against the starting spectra

UniProt P02701, sequence (P02701 25-152 limits assumed): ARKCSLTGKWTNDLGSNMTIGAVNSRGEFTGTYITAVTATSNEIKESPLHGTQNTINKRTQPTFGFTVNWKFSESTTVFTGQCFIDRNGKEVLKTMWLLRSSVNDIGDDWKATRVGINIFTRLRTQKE

resonance wavelength shift [1]: 0.069 nm
Substance: biotinylated anti-bovine immunoglobulin G (IgG) [H+L] [Goat] (Rockland Inc., product number 601-1602) (antibody)

resonance wavelength shift [2]: 0.056 nm
Substance: rabbit anti-mouse IgG (H+L) (unconjugated, Pierce, product 31188) (antibody)

resonance wavelength shift [3]: 0.111 nm
Substance: Fab specific goat anti-mouse IgG (Sigma Chemical Co. product M 6898) (antibody)

The remaining lines, values behind:

Substance: E. coli cellular extract proteins
resonance wavelength shift [4]: -0.005 nm

Substance: mouse IgG (Sigma Chemical Co., product number I5381) (antibody)
percent of the saturation binding level [5]: 70%
wavelength shift [6]: 0.01 nm
wavelength shift [7]: 0.032 nm
wavelength shift [8]: 0.022 nm
wavelength shift [9]: 0.026 nm
wavelength shift [10]: 0.03 nm
wavelength shift [11]: 0.041 nm
wavelength shift [12]: 0.036 nm
wavelength shift [13]: 0.036 nm
wavelength shift [14]: 0.041 nm
wavelength shift [15]: 0.043 nm
wavelength shift [16]: 0.043 nm
wavelength shift [17]: 0.037 nm
wavelength shift [18]: 0.051 nm
wavelength shift [19]: 0.058 nm
wavelength shift [20]: 0.06 nm
wavelength shift [21]: 0.037 nm
wavelength shift [22]: 0.049 nm
wavelength shift [23]: 0.05 nm
wavelength shift [24]: 0.053 nm
wavelength shift [25]: 0.052 nm
wavelength shift [26]: 0.054 nm
wavelength shift [27]: 0.054 nm
wavelength shift [28]: 0 nm
wavelength shift [29]: 0 nm
wavelength shift [30]: 0 nm
resonance wavelength shift [31]: 0.054 nm

Substance: anti-Alexa Fluor 488 rabbit IgG (Molecular Probes, Inc. product number A-11094) (antibody)
resonance wavelength shift [32]: -0.004 nm
